The source of these data is patent publication US20070196354A1, “Method of treating diabetes by inhibiting degradation of at least one of crebl1, atf6, and hnf-4 alpha by htra” (priority 2003, published 2007).

In assay [1] the test system is casein. Nature of the assay: Casein zymography and protease assay with casein sodium. Format: biochemical. As to conditions: casein zymography and casein sodium protease assay, 37° C., E. coli-expressed His-tagged protein. As for the experimental part:
Determination of the activity of mature HtrA2 and mature HtrA2 (S306A) was carried out with casein zymography and with a protease assay with casein sodium. Casein zymography was carried out according to the protocol (Invitrogen). More concretely, mature HtrA2 and mature HtrA2 (S306A) were mixed under non-reductive condition with equivalent volume of 2×SDS sample buffer, left to stand at room temperature for 10 min, followed by separation with 4-16% zymogram (Blue casein) gel (Zymogram Gel, Invitrogen). After completion of electrophoresis, they were renatured with 2.5% Triton X-100, and then subjected to a degradation reaction of casein in the developing buffer at 37= C. for overnight.
Meanwhile, a protease assay using casein sodium as an substrate was carried out in such that mature HtrA2 or mature HtrA2 (S306A) was mixed with casein sodium in a reaction buffer (150 mM NaCl, 50 mM Tris-HCl (pH 7.5)) so as to the concentration of the former might become 200 μg/ml and the concentration of the latter might become 400 μg/ml, and incubated at 37° C. for reactions. A portion of the reaction solution was sampled at three hours and overnight after initiation of the reaction, mixed with equivalent volume of 2×SDS sample buffer followed by boiling, and then subjected to SDS-PAGE. After that, the degradation of casein sodium was detected by Coomassie Brilliant Blue (CBB) staining.
The enzyme activity of the various types of HtrA2 each of which was expressed in a cultured cell was determined by the protease assay using casein sodium as a substrate (see Example 2).

The target of assay [2] is T1, CREBL1 (Homo sapiens, UniProt Q99941).
T1 construct: expressed in transfected cells; host or cells: HEK293T
T1 sequence (Q99941 1-703): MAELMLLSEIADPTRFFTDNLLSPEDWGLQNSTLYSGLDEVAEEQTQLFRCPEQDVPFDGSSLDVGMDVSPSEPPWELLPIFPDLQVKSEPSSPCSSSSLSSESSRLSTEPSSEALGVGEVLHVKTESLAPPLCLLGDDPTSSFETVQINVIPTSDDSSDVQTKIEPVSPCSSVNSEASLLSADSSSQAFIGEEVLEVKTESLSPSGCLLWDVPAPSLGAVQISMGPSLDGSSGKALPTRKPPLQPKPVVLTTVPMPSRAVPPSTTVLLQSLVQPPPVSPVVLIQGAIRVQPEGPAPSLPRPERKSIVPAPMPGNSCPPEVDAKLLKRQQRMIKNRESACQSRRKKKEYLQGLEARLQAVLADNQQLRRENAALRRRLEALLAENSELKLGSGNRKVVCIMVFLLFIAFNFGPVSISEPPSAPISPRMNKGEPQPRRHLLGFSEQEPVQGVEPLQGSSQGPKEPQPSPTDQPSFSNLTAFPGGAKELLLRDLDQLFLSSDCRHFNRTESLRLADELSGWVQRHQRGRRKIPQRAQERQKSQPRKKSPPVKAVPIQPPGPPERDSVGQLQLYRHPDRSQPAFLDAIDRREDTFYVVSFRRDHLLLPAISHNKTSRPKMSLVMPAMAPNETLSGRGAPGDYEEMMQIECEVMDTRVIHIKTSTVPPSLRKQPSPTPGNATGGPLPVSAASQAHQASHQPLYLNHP
Nature of the assay: In vitro protease assay, CREBL1 captured on resin. Format: biochemical. As to conditions: 50 μg/ml, 37° C., overnight (O/N), anti-c-Myc detection. As for the experimental part:
CREBL1 and ATF6 which were captured on the resin were used in the experiments in order to eliminate the influence of proteinaceous impurities contained in the soluble fractions prepared from the cells obtained by transfecting an expression plasmid of CREBL1 or ATF6. Three hundreds μl of each soluble fraction of CREBL1 and ATF6 was dispensed to six tubes (Nos. 1 to 6), followed by adding 20 μl of protein G sepharose 4 FF (Amersham) of 50% slurry that had been subjected to blocking with BSA, to each of tubes, subjected to overturned mixing at 4° C. for 1 hour, and then subjected to centrifugation (10,000 rpm, 10 sec, 4° C.) to collect the supernatant, and thus the pre-treatment (pre-clean) was performed. The resultant supernatant was mixed with 1.7 μl (2 μg) of anti-Myc antibody (Invitrogen), subjected to overturned mixing at 4° C. for 3 hours, followed by adding 20 μl of protein G sepharose 4 FF that had been subjected to blocking with BSA, and then subjected to overturned mixing at 4° C. overnight. Thus, CREBL1 and ATF6 were respectively captured on protein G sepharose 4 FF. […]

B1: mature HtrA2: SEQ ID NO: 4; mature protein generated from HtrA2 precursor by cleavage of N-terminal 133 residues, has protease activity (protein, listed as Homo sapiens)
chain: MAVPSPPPASPRSQYNFIADVVEKTAPAVVYIEILDRHPFLGREVPISNGSGFVVAADGLIVTNAHVVADRRRVRVRLLSGDTYEAVVTAVDPVADIATLRIQTKEPLPTLPLGRSADVRQGEFVVAMGSPFALQNTITSGIVSSAQRPARDLGLPQTNVEYIQTDAAIDFGNSGGPLVNLDGEVIGVNTMKVTAGISFAIPSDRLREFLHRGEKKNSSSGISGSQRRYIGVMMLTLSPSILAELQLREPSFPDVQHGVLIHKVILGSPAHRAGLRPGDVILAIGEQMVQNAEDVYEAVRTQSQLAVQIRRGRETLTLYVTPEVTE
modifications: mature HtrA2
On to B1, for which the degradation of casein entry in assay [1] is given as “degradation of casein by mature HtrA2 was observed”. Further, the “degradation of CREBL1 (band by western blotting)” value in assay [2] is “the band of CREBL1 was reduced significantly”.
